Measurements reported in patent publication EP2014310A2 (Dyax Corporation, dated 2009).
Bridge positions count the residues as written; N and C are the ends. Side chains are listed from the residue outwards. Ends that are not written are not given here. I, II: the chains in the order shown. * marks the point of attachment. Biotin = O=C1N[C@H]2[C@H](CS[C@H]2CCCCC(=O)*)N1; AEEA = NCCOCCOCC(=O)O

Experiments:
[1] = biological target: KDR on human umbilical vein endothelial cells (HUVECs) (human, UniProt P35968 20-1356); test: cell-based or functional assay
KDR on human umbilical vein endothelial cells (HUVECs), sequence (P35968 20-1356): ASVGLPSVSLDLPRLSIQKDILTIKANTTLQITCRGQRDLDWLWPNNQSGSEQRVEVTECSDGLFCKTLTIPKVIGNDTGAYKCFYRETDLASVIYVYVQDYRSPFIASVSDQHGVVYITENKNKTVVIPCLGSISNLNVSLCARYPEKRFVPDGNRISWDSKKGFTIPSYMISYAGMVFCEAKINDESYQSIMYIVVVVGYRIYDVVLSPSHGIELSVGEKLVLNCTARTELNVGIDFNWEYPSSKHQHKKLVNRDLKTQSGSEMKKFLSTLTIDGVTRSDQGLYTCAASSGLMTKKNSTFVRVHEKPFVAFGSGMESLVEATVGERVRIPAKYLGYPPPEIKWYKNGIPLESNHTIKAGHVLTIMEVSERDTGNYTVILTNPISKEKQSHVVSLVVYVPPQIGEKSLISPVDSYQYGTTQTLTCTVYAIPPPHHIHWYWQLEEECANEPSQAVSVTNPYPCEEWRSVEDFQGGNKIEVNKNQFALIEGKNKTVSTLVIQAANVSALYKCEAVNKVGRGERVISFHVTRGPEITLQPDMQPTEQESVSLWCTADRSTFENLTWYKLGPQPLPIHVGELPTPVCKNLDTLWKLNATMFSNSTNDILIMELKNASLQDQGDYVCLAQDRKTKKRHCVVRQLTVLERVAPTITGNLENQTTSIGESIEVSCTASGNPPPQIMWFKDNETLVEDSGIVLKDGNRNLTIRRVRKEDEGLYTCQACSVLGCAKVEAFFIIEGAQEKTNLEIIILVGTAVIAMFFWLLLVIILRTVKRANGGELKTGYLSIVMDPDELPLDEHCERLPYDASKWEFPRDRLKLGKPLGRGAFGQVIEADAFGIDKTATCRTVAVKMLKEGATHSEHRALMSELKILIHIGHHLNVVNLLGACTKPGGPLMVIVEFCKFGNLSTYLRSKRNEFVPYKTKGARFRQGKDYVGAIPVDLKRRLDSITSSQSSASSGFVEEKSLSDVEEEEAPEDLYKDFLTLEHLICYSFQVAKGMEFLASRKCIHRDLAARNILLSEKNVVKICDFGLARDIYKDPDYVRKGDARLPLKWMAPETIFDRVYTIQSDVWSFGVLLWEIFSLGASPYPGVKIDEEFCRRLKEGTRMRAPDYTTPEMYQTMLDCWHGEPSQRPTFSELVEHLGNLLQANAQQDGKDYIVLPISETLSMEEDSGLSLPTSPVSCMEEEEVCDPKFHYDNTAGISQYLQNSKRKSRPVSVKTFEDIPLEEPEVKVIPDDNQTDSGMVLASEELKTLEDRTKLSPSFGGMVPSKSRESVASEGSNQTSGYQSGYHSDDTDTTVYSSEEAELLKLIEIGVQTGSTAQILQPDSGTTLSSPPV

[2] = biological target: T1, human KDR-Fc fusion (R&D Systems #357-KD-050) (human, UniProt P35968 20-764); test: Biacore steady state, KD1 of double rectangular hyperbola, KDR-Fc 1600RU
T1 construct: bought
T1 sequence (P35968 20-764): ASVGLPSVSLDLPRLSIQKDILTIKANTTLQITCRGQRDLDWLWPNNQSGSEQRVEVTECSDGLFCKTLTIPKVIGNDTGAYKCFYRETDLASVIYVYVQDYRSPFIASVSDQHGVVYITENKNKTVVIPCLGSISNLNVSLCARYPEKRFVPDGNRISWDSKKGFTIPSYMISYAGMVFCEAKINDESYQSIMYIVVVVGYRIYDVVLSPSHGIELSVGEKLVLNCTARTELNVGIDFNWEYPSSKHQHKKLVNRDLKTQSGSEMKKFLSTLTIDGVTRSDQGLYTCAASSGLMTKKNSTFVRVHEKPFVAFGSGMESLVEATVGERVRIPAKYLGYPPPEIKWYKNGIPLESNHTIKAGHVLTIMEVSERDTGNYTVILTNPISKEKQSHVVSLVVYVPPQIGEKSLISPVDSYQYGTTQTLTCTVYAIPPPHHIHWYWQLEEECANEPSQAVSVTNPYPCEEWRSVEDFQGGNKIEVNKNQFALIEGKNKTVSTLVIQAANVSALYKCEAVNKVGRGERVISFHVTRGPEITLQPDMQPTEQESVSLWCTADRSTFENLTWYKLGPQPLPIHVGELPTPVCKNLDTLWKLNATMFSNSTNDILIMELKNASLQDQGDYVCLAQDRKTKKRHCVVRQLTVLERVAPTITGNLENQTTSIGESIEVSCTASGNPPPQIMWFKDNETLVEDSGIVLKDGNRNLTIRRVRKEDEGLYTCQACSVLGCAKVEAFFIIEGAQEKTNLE

[3] = biological target: T1, human KDR-Fc fusion (R&D Systems …); test: Biacore steady state at the higher immobilization densities
[4] = biological target: T1, human KDR-Fc fusion (R&D Systems …); test: Biacore steady state, KD1 of double rectangular hyperbola, KDR-Fc 3000RU
[5] = biological target: T1, human KDR-Fc fusion (R&D Systems …); test: Biacore steady state, KD1 of double rectangular hyperbola, KDR-Fc 6000RU
[6] = biological target: T2, murine KDR-Fc fusion (R&D Systems #443-KD-050) (murine, UniProt P35918 20-762); test: BIAcore, KD1 = kd1/ka1, murine KDR-Fc 2700RU
T2 construct: bought; also called recombinant murine KDR-Fc; rmKDR-Fc
T2 sequence (P35918 20-762): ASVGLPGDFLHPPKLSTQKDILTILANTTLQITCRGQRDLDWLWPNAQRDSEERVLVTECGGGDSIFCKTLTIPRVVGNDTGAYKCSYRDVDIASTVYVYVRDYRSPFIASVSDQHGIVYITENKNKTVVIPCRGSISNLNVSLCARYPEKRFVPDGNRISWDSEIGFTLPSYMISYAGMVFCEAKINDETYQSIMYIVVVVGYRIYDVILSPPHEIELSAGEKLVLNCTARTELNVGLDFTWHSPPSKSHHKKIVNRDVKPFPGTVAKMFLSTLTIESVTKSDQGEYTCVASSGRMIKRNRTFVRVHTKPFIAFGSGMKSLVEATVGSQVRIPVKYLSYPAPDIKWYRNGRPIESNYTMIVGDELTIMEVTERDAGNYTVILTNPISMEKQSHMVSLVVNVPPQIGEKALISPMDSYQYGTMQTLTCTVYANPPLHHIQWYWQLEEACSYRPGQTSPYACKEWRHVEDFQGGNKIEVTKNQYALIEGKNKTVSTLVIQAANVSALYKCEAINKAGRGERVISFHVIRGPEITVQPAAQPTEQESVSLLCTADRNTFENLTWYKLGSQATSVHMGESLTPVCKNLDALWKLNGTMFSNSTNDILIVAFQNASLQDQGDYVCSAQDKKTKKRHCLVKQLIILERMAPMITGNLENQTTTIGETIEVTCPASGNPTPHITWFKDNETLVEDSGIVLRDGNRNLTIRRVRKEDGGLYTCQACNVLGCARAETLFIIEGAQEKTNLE

[7] = biological target: T2, murine KDR-Fc fusion (R&D Systems …); test: BIAcore, KD1 = kd1/ka1, murine KDR-Fc 5000RU
[8] = biological target: human KDR-Fc fusion (R&D Systems #357-KD-050) (human) (UniProt P35968); test: SPR, reference D2
human KDR-Fc fusion (R&D Systems #357-KD-050) (human), sequence (P35968 20-764): as the sequence (P35968 20-764) above

[9] = biological target: T3, KDR/VEGF complex (KDR-Fc mixed or saturated with VEGF) (human, UniProt P35968 20-764; P15692 27-191); test: fluorescence anisotropy, fluorescein-labeled peptide, KDR-Fc with two fold excess VEGF
T3 construct: anisotropy: two fold molar excess of VEGF mixed with KDR-Fc; Biacore: KDR-Fc chip saturated with VEGF; also called KDR:VEGF165 complex
T3 sequence (P35968 20-764, chain 1 of 2): as the sequence (P35968 20-764) above
T3 sequence (P15692 other isoform, or with tags, fused parts or gaps, chain 2 of 2): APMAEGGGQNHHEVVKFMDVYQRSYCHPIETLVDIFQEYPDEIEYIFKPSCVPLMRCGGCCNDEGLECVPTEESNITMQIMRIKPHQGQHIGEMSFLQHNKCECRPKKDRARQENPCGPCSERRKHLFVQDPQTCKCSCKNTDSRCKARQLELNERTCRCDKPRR

[10] = biological target: T3, KDR/VEGF complex (KDR-Fc mixed or …); test: Biacore, KDR-Fc chip saturated with VEGF, unlabeled peptide
[11] = biological target: T4, VEGF165 (Peprotech #100-20) (UniProt P15692-4 27-191); test: fluorescence anisotropy, fluorescein-labeled peptide
T4 sequence (P15692 other isoform, or with tags, fused parts or gaps limits assumed): as the sequence (P15692 other isoform, or with tags, fused parts or gaps, chain 2 of 2) above

[12] = biological target: T1, human KDR-Fc fusion (R&D Systems …); test: fluorescence anisotropy, fluorescein-labeled peptide, KDR-Fc alone
[13] = biological target: KDR on transiently KDR-transfected 293H cells (human) (UniProt P35968); test: neutravidin-HRP complexes, KDR minus mock 293H cells
KDR on transiently KDR-transfected 293H cells (human), sequence (P35968 20-1356): as the sequence (P35968 20-1356) above

[14] = biological target: T1, human KDR-Fc fusion (R&D Systems …); test: fluorescence anisotropy, fluorescein-labeled peptide
[15] = biological target: T4, VEGF165 (Peprotech #100-20); test: fluorescence anisotropy, fluorescein-labeled peptide, VEGF alone
[16] = biological target: KDR on transiently KDR-transfected 293H cells (human) (UniProt P35968); test: competition with 300 pM 125I-VEGF on KDR-transfected 293H cells, peptide 30 µM
[17] = biological target: T1, human KDR-Fc fusion (R&D Systems …); test: Biacore, KDR-Fc on CM5 chip, unlabeled peptide
[18] = biological target: KDR on transiently KDR-transfected 293H cells (human) (UniProt P35968); test: competition with 300 pM 125I-VEGF on KDR-transfected 293H cells, peptide 0.3 µM
[19] = biological target: T1, human KDR-Fc fusion (R&D Systems …); test: SPR
[20] = biological target: T5, KDR on transiently KDR-transfected 293H cells (human, UniProt P35968 20-1356); test: displacement of 5.5 nM streptavidin-HRP/binding peptide complex from KDR-transfected 293H cells
T5 construct: whole, on cells; also called KDR-expressing cells
T5 sequence (P35968 20-1356): as above

[21] = biological target: T1, human KDR-Fc fusion (R&D Systems …); test: phage binding screen on KDR-Fc; class legend in paragraph 246
[22] = biological target: T5, KDR on transiently KDR-transfected 293H …; test: displacement of 5.5 nM peptide/streptavidin-HRP complex from KDR-transfected 293H cells
[23] = biological target: T2, murine KDR-Fc fusion (R&D Systems …); test: BIAcore, KD1 = kd1/ka1, fluorescein-labeled peptide, murine KDR-Fc 5000RU
[24] = biological target: T2, murine KDR-Fc fusion (R&D Systems …); test: BIAcore, KD1 = kd1/ka1, fluorescein-labeled peptide, murine KDR-Fc 2700RU

B1: D6, peptide heterodimer composed of SEQ ID NO:277 and SEQ ID NO:294 (peptide)
peptide 1: AGPTWCEDDWYYCWLFGTGGGK
peptide 2: GDSRVCWEDSWGGEVCFRYDPGGGK
modifications: linker (positions not given here) via glutaric acid; disulfide I:6-I:13, II:6-II:16 (inferred); also: heterodimer joined by glutaric acid linker, attachment places not given here
notes: made with glutaric acid bis N-hydroxysuccinimidyl ester
For B1, the “IC50, VEGF-induced migration of HUVECs” value [1] was roughly 12.5 nM, the Kd [2] was 46 nM and the Kd [3] was roughly 0.6 nM. The Kd [4] was 25.5 nM and the Kd [5] was 17 nM.

B2: dimer 1 (D1) (peptide)
peptide 1: Ac-AGPTWCEDDWYYCWLFGTGGGK
peptide 2: Ac-VCWEDSWGGEVCFRYDPGGG
modifications: cysteine pairing not given here; also: heterodimer, C-terminal Lys joined through Biotin-JJK-glutaryl-JJ linker to the second peptide, amide, C-terminus joined to a lysine amide of the linker
With B2 the “IC50, VEGF-induced phosphorylation of KDR in HUVECs” value [1] was 0.5 to 1 nM, the Kd [6] was 17.5 nM and the Kd [7] was 16 nM. It also gave a fold higher affinity than D2 [8] of 10 fold.

B3: SEQ ID NO:321 (peptide)
peptide: Ac-AGPGPCKGYMPHQCWYMGTGGGK-NH2
modifications: disulfide 6-14 (inferred); not fully specified; also: C-terminal Lys fluorescein-labeled in some assay forms
With B3 the Kd [9] was 60 nM, the Kd [10] was 80 nM and the binding result [11] was “no binding”. For the same binder, the Kd [12] was 400 nM.

In the case of Ac-AQDWYYDEILSMADQLRHAFLSGGGGGK([AEEA-AEEA-Biotin])-NH2 (peptide, part only; not given: control peptide and neutravidin-HRP, not shown: large carriers, also: neutravidin-HRP complex with biotinylated control peptide (trimer)) [neutravidin-HRP complex of SEQ ID NO:356 and control peptide, trimer], the ratio of specific binding to that of monomer (Trimer) [13] is reported as 5.7.

Ac-AQDWYYDEILSMADQLRHAFLSGGGGGK([AEEA-AEEA-Biotin])-NH2 (peptide, part only; not given: control peptide and neutravidin-HRP, not shown: large carriers, also: neutravidin-HRP complex with biotinylated control peptide (dimer)) [neutravidin-HRP complex of SEQ ID NO:356 and control peptide, dimer] gave a ratio of specific binding to that of monomer (Dimer) [13] of 2.3.

B4: SEQ ID NO:320 (peptide)
peptide: Ac-AGMPWCVEKDHWDCWWWGTGGGK-NH2
modifications: disulfide 6-14 (inferred); not fully specified; also: C-terminal Lys fluorescein-labeled in some assay forms
B4 was tested, and the Kd [9] was 140 nM, the binding result [14] was “no binding” and the Kd [15] was 10000 nM.

B5: SEQ ID NO:322 (peptide)
peptide: Ac-AGYGPCAEMSPWLCWYPGTGGGK-NH2
modifications: disulfide 6-14 (inferred); not fully specified; also: C-terminal Lys fluorescein-labeled in some assay forms
In the case of B5, the Kd [9] is reported as 130 nM, the binding result [11] is reported as “no binding” and the Kd [12] is reported as 3700 nM.

With Ac-GDSRVCWEDSWGGEVCFRYDPGGGK-NH2 (not fully specified; cysteine pairing not given here) [SEQ ID NO:294] the “VEGF-induced KDR phosphorylation in HUVECs” value [1] was no less than 50 % inhibition at 10 µM, the % inhibition of 125I-labeled VEGF binding [16] was 96.3% and the Kd [17] was 120 nM. The % inhibition of 125I-labeled VEGF binding [18] was 52.3%.

B6: SEQ ID NO:326 (peptide)
peptide: Ac-AQEGWFRNPQEIMGFGDSWDKPGGGGGK-NH2
modifications: not fully specified; also: C-terminal Lys fluorescein-labeled in some assay forms
For B6, the Kd [9] was 1400 nM, the binding result [11] was “no binding” and the binding result [14] was “no binding”.

B7: tail-to-tail heterodimer comprising the polypeptides of SEQ ID NO:305 and SEQ ID NO:306 (peptide)
peptide 1: AQEPEGYAYWEVITLYHEEDGDGGK
peptide 2: AQAFPRFGGDDYWIQQYLRYTDGGK
modifications: not fully specified (bridges); also: tail-to-tail linker not given here
B7 was tested, and the Kd [19] was 11 nM.

Binder Ac-AGPTWKEDDWYYEWLFGTGGGK-NH2 (lactam 6-13) [SEQ ID NO:454, lactam disulfide bridge replacement analog] has an IC50 [20] of 108 nM.

NSHCYIWDGMWLCFPD [phage isolate NSHCYIWDGMWLCFPD]: binds [21].

With DWYYGGGK [SEQ ID NO:462, fragment of SEQ ID NO:356 (Asp-Trp-Tyr-Tyr motif with Gly-Gly-Gly-Lys)] the IC50 [22] was 850 nM.

B8: SEQ ID NO:323 (peptide)
peptide: Ac-AGYGPCKNMPPWMCWHEGTGGGK-NH2
modifications: disulfide 6-14 (inferred); not fully specified; also: C-terminal Lys fluorescein-labeled in some assay forms
B8 was tested, and the Kd [9] was 180 nM, the Kd [10] was 420 nM and the binding result [11] was “no binding”. For the same binder, the Kd [12] was 1800 nM.

Ac-AGPTWCEDDWYYCWLFGTGGGK-NH2 (disulfide 6-13 (inferred); not fully specified) [SEQ ID NO:277] was tested, and the Kd [23] was 33.6 nM and the Kd [24] was 36.4 nM.

DHHCYLHNGQWICYPF [phage isolate DHHCYLHNGQWICYPF]: binds [21].

B9: SEQ ID NO:325 (peptide)
peptide: Ac-AQAPAWTFGTNWRSIQRVDSLTGGGGGK-NH2
modifications: not fully specified; also: C-terminal Lys fluorescein-labeled in some assay forms
With B9 the Kd [9] was 840 nM, the binding result [11] was “no binding” and the binding result [14] was “no binding”.
